Data as given in article PMC12102760.

Molecular target: IgG 1C1
Assay: BLI; IgG captured on anti-human biosensors, quenched with Fc; receptor ECD-Fc in solution, three-fold dilutions from 300 nM; PBS, 1% BSA, 0.05% Tween 20; 25°C; 1:1 binding model

Sequence of IgG 1C1 (heavy, as listed by the source, chain 1 of 2): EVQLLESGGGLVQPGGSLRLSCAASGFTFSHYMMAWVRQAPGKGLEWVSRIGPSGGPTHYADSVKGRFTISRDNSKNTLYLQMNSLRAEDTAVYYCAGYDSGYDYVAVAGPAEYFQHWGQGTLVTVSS
Sequence of IgG 1C1 (light, as listed by the source, chain 2 of 2): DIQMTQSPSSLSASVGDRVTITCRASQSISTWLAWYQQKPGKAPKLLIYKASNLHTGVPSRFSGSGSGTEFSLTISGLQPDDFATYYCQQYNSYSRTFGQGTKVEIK

B1: EphA8-Fc (Fc fusion)
chain: ARGEVNLLDTSTIHGDWGWLTYPAHGWDSINEVDESFQPIHTYQVCNVMSPNQNNWLRTSWVPRDGARRVYAEIKFTLRDCNSMPGVLGTCKETFNLYYLESDRDLGASTQESQFLKIDTIAADESFTGADLGVRRLKLNTEVRSVGPLSKRGFYLAFQDIGACLAILSLRIYYKKCPAMVRNLAAFSEAVTGADSSSLVEVRGQCVRHSEERDTPKMYCSAEGEWLVPIGKCVCSAGYEERRDACVACELGFYKSAPGDQLCARCPPHSHSAAPAAQACHCDLSYYRAALDPPSSACTRPPSAPVNLISSVNGTSVTLEWAPPLDPGGRSDITYNAVCRRCPWALSRCEACGSGTRFVPQQTSLVQASLLVANLLAHMNYSFWIEAVNGVSDLSPEPRRAAVVNITTNQAAPSQVVVIRQERAGQTSVSLLWQEPEQPNGIILEYEIKYYEKDKEMQSYSTLKAVTTRATVSGLKPGTRYVFQVRARTSAGCGRFSQAMEVETGKPRPRYDTRT
- Kd: 970 nM
